# Assay results reported in patent publication US20070020252A1, “Modified protease inhibitors” (priority 2003, published 2007).
# How the values were obtained:
# [1] = Pharmacokinetic study in mice: plasma clearance of 125I-labeled protein, SEC of plasma; format: in vivo
# Experimental: The pharmacokinetics of DX-890 and the PEGylated DX-890 compounds were measured by iodinating the proteins on available tyrosine residues and measuring their clearance in mice.
# Samples were radio-iodinated by the indirect method using the IODO-GEN reagent (method from Pierce Chem. Co., and first described by Chizzonite [J Immunol 147, 1548-1556, 1991; J. Immunol 148, 3117-3124, 1992]). Samples were incubated with the ^125I-NaI solution for 9 min at which time tyrosine (10 mg/mL, a saturated solution) was added to quench the reaction. After about 15 min a 5 μl aliquot was removed as a standard for counting.
# For each labeling reaction, the ^125I-labeled material (approx. 0.6 mL) was purified using a single 5 mL D-salt 1800 polyacrylamide column (Pierce Chem. Co.). […] Samples were applied in and columns were eluted with a series of 0.3 mL aliquots. Recovery of applied activity in all protein fractions was >75% and the total recovery of applied activity was >90%. The fractions containing peak levels of labeled protein were pooled for animal injections. To prepare the injectate, the pool was diluted with Tris buffer (pH 7.5) so that the 100 μL injection volume contained about 10 μg of labeled material.
# Time of injection and time of sampling were recorded. At sacrifice, samples of 0.5 ml were collected into anticoagulant (0.02 ml EDTA). Cells were spun down and separated from plasma, and cells were stored at −20° C. Plasma was divided into two aliquots, one frozen and one stored at 4° C. for immediate analysis. Analysis included gamma counting of all samples. In addition, analysis was performed for two plasma samples (N=2) at each time point, i.e., 0, and 30 minutes, for ^125I-DX-890, and 0, 30 minutes, and 24 h for the ^125I-DX-890-PEG conjugates. A SEC-HPLC Superose-12 column was used with an in-line radiation detector (FIGS. 4-7).
# The solid curves through the sets of data plotted in FIG. 3 are four-parameter, least-squares fits of Equation 3 to the data. Table 3 presents the values for % α Phase, α Phase Half-life, % β Phase, and β Phase Half-life extracted from the least squares fits to the in vivo clearance data set obtained for each of the four compounds tested in mice.
# [2] = Allometric extrapolation of β-phase half-life from mice and rabbits to humans; details: 70 Kg human, linear extrapolation from mice and rabbits
# Excerpt: Data on in vivo pharmacokinetic parameters obtained from small laboratory mammals (e.g. rodents, dogs, and monkeys) can be extrapolated to humans by interspecies scaling (summarized by Mahmood and Balian, Life Sciences 7: 579-585, 1996 and Clin Pharmacokinet 36:1-11, 1999). A simple allometric approach describes the relationship between bodyweight (W) and a pharmacokinetic parameter of interest (Y) in terms of the power function: Y=aW^b (Equation 4) where a and b are the empirically determined coefficient and exponent of the allometric equation, respectively. […] Further, of the three most important pharmacokinetic parameters (total body clearance, volume of distribution, and t1/2β) typically measured, t1/2β is least well predicted by Equation 4. With these caveats in mind, data presented in Tables 2 and 4 can be used to provide crude estimates of expected t1/2β in humans.
# FIG. 10 presents data from Tables 2 and 4 plotted as log [Beta Phase Half-Live] vs log [Body Mass] for unmodified DX-890 (triangles) and mono-PEG30-DX-890 (circles). Linear extrapolations of the experimental data for mice (25 gm) and rabbits (2.5 Kg) to humans (70 Kg) are shown by the solid crosses in the figure. The extrapolated values for β-phase half-lives in humans are ˜5 hours for unmodified DX-890 and ˜14 days for mono-PEG30-DX-890. […]
# [3] = molecular target: T1, human neutrophil elastase (HNE) (Homo sapiens, UniProt P08246); details: description statement; cited from earlier work
# T1 sequence (P08246 30-267): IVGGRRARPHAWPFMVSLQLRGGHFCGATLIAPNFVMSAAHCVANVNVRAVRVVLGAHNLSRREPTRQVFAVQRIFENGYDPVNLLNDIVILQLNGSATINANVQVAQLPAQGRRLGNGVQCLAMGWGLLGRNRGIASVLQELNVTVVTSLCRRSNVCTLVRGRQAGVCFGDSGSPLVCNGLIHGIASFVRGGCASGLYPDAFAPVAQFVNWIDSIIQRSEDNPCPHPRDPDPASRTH
# [4] = Pharmacokinetic study in rabbits: plasma clearance of 125I-labeled protein, SEC of plasma; format: in vivo, New Zealand White rabbits
# Experimental: Pharmacokinetic properties of DX-890 and PEG-30-DX-890 (conjugation at pH 7.4) were measured by iodinating the proteins and measuring clearance of the radiolabel from circulation in rabbits. The two DX-890 preparations were iodinated with iodine-125 using the iodogen method. After radiolabeling, the two labeled protein preparations were purified from unbound label by size exclusion chromatography (SEC). Fractions from the SEC column having the highest radioactivity were pooled. The purified, radiolabeled preparations were characterized for specific activity by gamma counting and for purity by SEC using a Superose-12 column equipped with an in-line radiation detector.
# New Zealand White rabbits (ca. 2.5 Kg) were used for clearance measurements, with one animal used for each of the two labeled protein preparations. The radiolabeled preparation was injected into the animal via an ear vein. One blood sample was collected per animal per time point with early time points at approximately 0, 2.5, 5, 7, 15, 30, 60, and 90 minutes post injection and later time points at 4, 8, 16, 24, 30, 48, 72, 96, 144, 168, and 192 hours post injection. Samples (about 0.5 mL) were collected into anticoagulant (EDTA) containing tubes. Cells were separated from the plasma fraction by centrifugation. The plasma fraction was divided into two aliquots. One plasma aliquot was stored at −70° C. and the other aliquot was kept at 4° C. for immediate analyse's. Sample analyses included radiation counting for clearance rate determinations and SEC chromatography to test for changes in the size distribution of radiolabeled material in vivo (stability).
# [5] = tail vein injection, bi-exponential fit
# [6] = ear vein injection, bi-exponential fit
substance,measurement,setting,value
"DX-890: 56 amino acid Kunitz domain polypeptide derived from ITI-D2, inhibitor of human neutrophil elastase, produced in Pichia pastoris (EACNLPIVRGPCIAFFPRWAFDAVKGKCVLFPYGGCQGNGNKFYSEKECREYCGVP)",percentage cleared in the β phase,[1],about 15%
same,α phase half life,[1],about 1 min
same,β phase half life,[1],about 1 hr
same,material remaining in circulation,[1]; 30 minutes after injection,less than 20%
same,α half life,[1]; Table 4 summary,1 min
same,β half life,[1]; Table 4 summary,1.32 h
same,α Phase Clearance (%),[1]; [5],84%
same,α Phase Half-life,[1]; [5],1.0 min
same,β Phase Clearance (%),[1]; [5],16%
same,β Phase Half-life (hr),[1]; [5],1.3 h
same,β Phase Half-life (min),[1]; [5],79 min
same,extrapolated β-phase half-life in humans,[2],~5 h
same,Ki,[3],4 pM
same,"in vivo stability, SEC analysis of plasma",[4],relatively rapid association of label with higher molecular weight plasma components
same,% α,[4]; [6],75%
same,% β,[4]; [6],25%
same,T1/2α,[4]; [6],24 s
same,T1/2β,[4]; [6],2.75 h
